Reference: article PMC8344073

Key:
RORα = target: T1, RORα (UniProt P35398 1-523); assay: EMSA
T1 sequence: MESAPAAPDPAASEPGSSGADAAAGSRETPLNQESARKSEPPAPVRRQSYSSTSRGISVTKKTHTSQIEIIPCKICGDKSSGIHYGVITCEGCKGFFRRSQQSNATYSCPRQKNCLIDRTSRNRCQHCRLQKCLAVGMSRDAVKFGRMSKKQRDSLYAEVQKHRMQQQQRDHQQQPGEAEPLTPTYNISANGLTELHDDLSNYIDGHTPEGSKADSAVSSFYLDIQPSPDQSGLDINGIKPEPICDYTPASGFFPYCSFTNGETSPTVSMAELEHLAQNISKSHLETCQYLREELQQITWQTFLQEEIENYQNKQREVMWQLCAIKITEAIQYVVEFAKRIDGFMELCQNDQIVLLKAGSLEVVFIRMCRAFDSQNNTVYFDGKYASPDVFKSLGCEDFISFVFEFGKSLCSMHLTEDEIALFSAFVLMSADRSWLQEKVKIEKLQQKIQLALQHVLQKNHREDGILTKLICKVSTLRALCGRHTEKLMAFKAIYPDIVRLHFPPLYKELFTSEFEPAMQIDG

ERα = ERα (UniProt P03372 1-595); assay: EMSA
Sequence of ERα (P03372 whole entry): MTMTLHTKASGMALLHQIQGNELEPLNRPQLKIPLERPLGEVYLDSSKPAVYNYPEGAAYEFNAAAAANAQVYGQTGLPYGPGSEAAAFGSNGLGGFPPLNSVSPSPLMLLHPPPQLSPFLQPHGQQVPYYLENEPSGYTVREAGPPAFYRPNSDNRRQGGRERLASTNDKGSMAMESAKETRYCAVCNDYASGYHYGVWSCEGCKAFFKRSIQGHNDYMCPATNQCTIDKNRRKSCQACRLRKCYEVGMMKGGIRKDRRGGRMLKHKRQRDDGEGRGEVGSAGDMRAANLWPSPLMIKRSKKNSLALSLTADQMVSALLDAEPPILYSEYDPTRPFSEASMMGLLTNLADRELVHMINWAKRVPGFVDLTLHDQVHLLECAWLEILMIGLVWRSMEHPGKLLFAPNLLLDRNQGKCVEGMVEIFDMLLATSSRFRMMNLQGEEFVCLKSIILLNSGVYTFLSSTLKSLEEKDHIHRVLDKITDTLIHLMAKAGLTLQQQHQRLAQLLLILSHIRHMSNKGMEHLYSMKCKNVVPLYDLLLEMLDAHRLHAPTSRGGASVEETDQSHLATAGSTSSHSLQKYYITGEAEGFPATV

B1: SULT1E1 RORE (dsDNA)
DNA 1: AGAGAATTGAGGTCACAG
DNA 2: CTGTGACCTCAATTCTCT
Q: Does B1 bind (RORα)?
A: Result: binds

B2: SULT1E1 ERE (dsDNA)
DNA 1: GAGGGTCAAGATAAACATT
DNA 2: AATGTTTATCTTGACCCTC
Q: Does B2 bind (ERα)?
A: Result: binds
